What was measured:
[1] = tested on: acute coronary syndromes; conditions: treated patients; Annals of Oncology 2007; cited from earlier work
[2] = 48 hours at room temperature or at 4° Celsius; cited from earlier work
[3] = Smith 2000; cited from earlier work
[4] = tested on: cardiovascular system; conditions: human, in vivo
Method: Three years later, advanced colorectal cancer is diagnosed necessitating a suitable cancer therapy. The left ventricular ejection fraction (LVEF) is determined by echocardiography (40%) indicating a minor systolic dysfunction. Moreover, the amounts of a troponin T (12 pg/ml) and NT-proBNP (510 pg/ml) are determined in a sample of the patient. The patient is subjected to a cardiac stress test showing that a region of the posterior myocardial wall has a dysfunctional contractility (reversible perfusion defects). Coronary angiography is carried out indicating 80% stenosis of the artery that supplies the region of dysfunctional contractility with blood. Two weeks after successful revascularization of the affected myocardial regions, troponin T (6 pg/ml) and NT-proBNP (180 pg/ml) are determined again. A therapy with VEGF-inhibitors is started; troponin T and NT-proBNP are measured monthly. During the therapy with VEGF-inhibitors the levels of these two biomarkers remain stable. Also, the therapy is effective indicated by a reduced tumor size as well as by reduced CEA levels (carcinoembryonic antigen). […] Examples are shown herein below.

[5] = tested on: troponin T and/or NT-proBNP; assay: Levels of troponin T and/or NT-proBNP before and during therapy in 27 patients; type: in vivo, human
From the text: Examples are shown herein below.

[6] = tested on: metastatic colorectal cancer; conditions: cited from earlier work
[7] = tested on: troponin T; conditions: human, in vivo
[8] = tested on: NT-proBNP; conditions: human, in vivo

For CNC(=O)c1cc(Oc2ccc(NC(=O)Nc3ccc(Cl)c(C(F)(F)F)c3)cc2)ccn1 [sorafenib], the “patients with induced acute coronary syndromes” value [1] is listed as 2.9%.

In the case of “BNP: Brain Natriuretic Peptide, active hormone, 32 amino acids”, the “concentration loss on storage” value [2] is given as “at least 20%” and the in-vivo half-life [3] is given as 0.333 h.

For “Bevacizumab: monoclonal antibody against the vascular endothelial growth factor (VEGF)”, the “adverse side effects on the cardiovascular system” value [4] was “no adverse side effects on the cardiovascular system”, the “patients in whom the levels of the markers remained unchanged (no significant increase)” value ([5]; 27 patients, serum, before vs during therapy) was “more than 80%” and the “change of the measured markers (Troponin T and NT-proBNP)” value ([5]; patient 4208, day 13 vs day 57 after therapy start) was “Significant increases”. For the same molecule, the survival [6] was “significantly improves survival”, the “change of troponin T during treatment” value [7] was “further increase of troponin T” and the NT-proBNP level [8] was 1916 pg/mL.

B1: NT-proBNP: N-terminal pro peptide of proBNP, 76 amino acids (protein, UniProt P16860 27-102, looked up)
NT-proBNP: HPLGSPGSASDLETSGLQEQRNHLQGKLSELQVEQTSLEPLQESPRPTGVWKSREVATEGIRGHRKMVLYTLRAPR
modifications: NT-proBNP
notes: N-terminal pro peptide of proBNP, 76 amino acids
In the case of B1, the in-vivo half-life [3] is given as 2 h.
